Biological target: the molecule itself
Assay: SEC; Superdex 200 10/300 GL, 0.5 mg in 500 μl loaded, 5 mM MOPS pH 7.5, 100 mM ammonium sulfate, 1 mM DTT; calibrated with standard proteins

B1: IALB_1185 protein from Ignavibacterium album (IaSGT), wild type, recombinant (enzyme)
chain: MKPHNSEKYFVKNGQPHFLISGEVHYFRINPKLWRNHLQLLKQTGADTVSTYIPWDWHEIEEDDFDFEGKTHPARNLIRFIKLCKEENLDLIVKPGPYILAEYENQGLPSWLLKKLSKNAFALDENGNVISPDLVSYLSDEFLEYTFKWYDKVMPIISKHQKEHYGPITMMQLCNEIGVFQWLSGKSDYNPKVINLYKEFIIQRYKTIEKLNSVYSTNYNSFDDLKAPSGKIKLRSDYCAYFDFHLFFREYYNKYISILKNKIRSFGINIKLTHNIPGWIYGNASELPMLISTYSEIMKNHPDIIFGLDHIPEFVSFRNAHSDLACNKILEAMQPEAPVWAAEFQAGTREHHVKAYAKDLETFYIASLAHGIKGFNYYMFSQGINPEGKGFYGKTFYFQTALDAASNKLALYDSIKKVNRFIRKEQKDLLRTNVNSEICVGFYKPYFFTELISSQLLKEKKLNVEELGLYIDPRFLREEILFNGLLRGLQTLNYNYDVVDLENCDLKSLTAYKQLWITSAEFMDAETQNLLSEFVLNGGNLILYPAVPTLDNYLNRCEILKNNFGIEFITKDSSHKVSAFGIEDVFTAFSKKQIYNDTNSKPIAFTQENEICGIRKKIGKGELTILGFAFGYTSDEHLELIDKLVKLNKIKRELFVSDKDIQFVVRENNKSRYIFFLNYHNERKTFNYRKSSELKKKKSEEISIAPFSYKVIKENK
notes: IALB_1185 protein (GH35), Ignavibacterium album DSM19864, gene ialb_1185 amplified from genomic DNA and inserted into the NdeI and XhoI sites of pET30a(+); domains in the structure: TIM barrel 6-432, Rossmann fold 438-648, Ig-like 653-716; theoretical molecular mass of the recombinant protein 84,709.883; Surmise: cloning into NdeI/XhoI of pET30a(+) would give a C-terminal His6 tag; A …
stoichiometry N: 2

Reference: publication PMC8861115, “Characterization and structural analyses of a novel glycosyltransferase acting on the β-1,2-glucosidic linkages” (The Journal of Biological Chemistry, 2022)
